The results in this text go back to patent US20200079865A1 (Bristol-Myers Squibb, published 2020).

A word on the EC50: it is the concentration that produces a half-maximal response. A low value points to higher potency in that assay. A word on the IC50: it is the concentration that inhibits the measured activity by half. A higher IC50 goes with weaker potency in that assay.

The target in assay [1] is T1, human GITR, membrane bound (on activated human T cells, 3A9-hGITR cells, huGITR knock-in mouse T cells) (human, UniProt Q9Y5U5 26-241).
T1 construct: also called TNFRSF18
T1 sequence: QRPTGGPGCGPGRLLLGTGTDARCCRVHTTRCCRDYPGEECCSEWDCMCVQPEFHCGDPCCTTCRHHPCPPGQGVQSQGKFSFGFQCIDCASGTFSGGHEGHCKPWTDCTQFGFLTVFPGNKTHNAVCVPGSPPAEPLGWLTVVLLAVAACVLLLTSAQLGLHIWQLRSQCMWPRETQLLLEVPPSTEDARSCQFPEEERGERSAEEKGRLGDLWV
Nature of the assay: FACS (MFI, PE anti-HA tag) on PHA-activated human T cells, CD8 column; the table's row head reads IC50, the text calls it EC50; unit from the axis. The text has this:
(§1) The samples were acquired on a FACS Canto Flow Cytometer (BD, San Jose) and analyzed with FlowJo software (Tree Star, Inc, Ashland, Oreg.).

Assay [2] concerns the target T1, human GITR, membrane bound (on …). Put plainly: FACS competition on activated human CD4+ T cells: pre-bound GITR-L titrated, then 28F3-hIgG1 at a fixed 0.5 ug/mL, detected with PE anti-human IgG Fc; unit from the axis.
From the text: as §1

Assay [3] shares this target. Nature of the assay: FACS (MFI, PE anti-HA tag) on PHA-activated human T cells, CD4 column; the table's row head reads IC50, the text calls it EC50; unit from the axis.
From the text: as §1

Assay [4] has the same target. Put plainly: FACS on PHA-activated human CD4+ and CD8+ T cells, anti-HA detection.
From the text: as §1

The target is the same in assay [5]. Nature of the assay: FACS competition on PHA-activated human T cells, pre-bound GITR-L against 0.5 ug/ml 28F3-hIgG1; partial inhibition.
From the text: as §1

B1: recombinant hGITR-L trimer (R&D Systems #6987-GL) (ligand)
chain: LQLETAKEPCMAKFGPLPSKWQMASSEPPCVNKVSDWKLEILQNGLYLIYGQVAPNANYNDVAPFEVRLYKNKDMIQTLTNKSKIQNVGGTYELHVGDTIDLIFNSEHQVLKNNTYWGIILLANPQFIS
notes: Bought soluble trimer, detected through a hemagglutinin (HA) tag; also called GITR Ligand; rhGITR-L
For B1, the concentration for a half-maximal effect (EC50) in assay [1] was 0.0163 µg/mL; in assay [3], 0.016 µg/mL; in assay [4] it was 0.016 µg/mL. For the same molecule, the IC50 was 0.00244 µg/mL in assay [2] and 0.0024 µg/mL in assay [5].
